Data: US20140079722A1, “EXTRACELLULAR TARGETED DRUG CONJUGATES” (CENTROSE, LLC, priority 2011, published 2014)

Experiments:
[1] = tested on: NSCLC cell line A549; experiment: In vitro cytotoxicity of M53-PEG24-CEN09-106 drug combinations; type: cell-based; details: Homo sapiens
Method: The studies employed a fixed ratio of the drugs (based on the EC50 values of each alone) across a concentration gradient. Single drug ED50 values were first determined and from those values combination analysis were prepared by 3-fold serial dilutions in 8 steps for all compounds. Combinations were tested using fixed concentration ratios. […] All compound concentrations and combinations were tested in duplicate. Cell culture and cell viability assays were performed as described.

[2] = tested on: PANC-1 xenograft; experiment: PANC-1 xenograft model, alone and with gemcitabine; type: in vivo, C.B-17/IcrHsd-Prkdc scid Lyst bg mice; details: gemcitabine alone 60 mg/kg i.p. q3dx5
Method: A disease model of pancreatic cancer was established by implanting 5×10^6 PANC-1 cells in 100 μL DMEM into the left flank of 7 week old female C.B-17/IcrHsd-Prkdc^scidLyst^bg mice. Mice were then treated with M53-PEG24-CEN09-106 with a drug loading of 8 and/or gemcitabine when the tumor size in groups of 3 animals averaged ˜500 mm^3. Treatments consisted of either vehicle control, M53-PEG24-CEN09-106 at 0.2, 1 and 5 mg/kg, with and without 60 mg/kg gemcitabine or 60 mg/kg gemcitabine alone and consisted of multiple injections using the M53-PEG24-CEN09-106 schedule of one injection every 7 days for 3 injections (q7d×3) administered i.v. and the gemcitabine schedule of one injection every 3 days for 5 injections (q3d×5) administered i.p. Tumor volumes were measured for each group using calibrated vernier calipers and plotted against first day of tumor implant for 28 days post-initial dose, graphed and shown in FIG. 6.

[3] = tested on: A549 xenograft; experiment: A549 xenograft model (cell implant); type: in vivo, Hsd:Athymic Nude-Foxn1nu mice; details: controls: paclitaxel 15 mg/kg q2dx5; control conjugate (loading 7) 10 mg/kg i.v. q7dx3; A549 xenograft
Method: Briefly, to establish a non-small-cell lung cancer disease model, 6×10^6 A549 cells in 200 μL, RPMI1640+50% Matrigel HC (BD Biosciences, San Jose, Calif.) were implanted into the left flank of Hsd:Athymic Nude-Foxn1^nu mice (Harlan, Indianapolis, Ind.). Therapy with antibody-drug conjugates was then initiated when the tumor volume in groups of 5 animals averaged ˜300 mm^3. Treatment using vehicle control, 0.1 and 1 mg/kg M53-PEG24-CEN09-106, and 10 mg/kg control M53-PEG24-CEN09-106 (a control conjugate with a drug loading of 7 drugs per antibody where the antibody's target is not on the cell surface but drug and linker and antibody isotype are the same as M53-PEG24-CEN09-106) were all administered i.v. using the schedule of one injection every 7 days with 3 total injected doses (q7d×3). 15 mg/kg paclitaxel dosed at q2d×5 served as a positive control treatment group. Using this schedule, tumor volumes were measured for each group using calibrated vernier calipers and plotted against first day of tumor implant for 54 days post-implant and 40 days post-initial dose, to produce the graph shown in FIG. 3.

[4] = tested on: A549 xenografts; experiment: Second A549 xenograft study (tumor fragments); type: in vivo, female HRLN nu/nu mice; details: for growth inhibition of the tumor compared to vehicle: 100 days post-initial dose, EDC (loading 3) 5 mg/kg i.p. q3dx4, scillarenin aminoxyloside 20 mg/kg q2dx5, paclitaxel 15 mg/kg q1dx5; for weight loss: same dosing as efficacy arms, second A549 xenograft study
Method: Briefly, to establish a non-small-cell lung cancer disease model, subcutaneous A549 xenografts were initiated in female HRLN nu/nu mice by implanting 8 mm^3 A549 tumor fragments subcutaneously into the left flank. Tumor growth was monitored, and mice bearing tumors of 60-180 mm^3 were selected for the study. Tumor-bearing mice (n=7 mice/group) with a group average tumor volume of approximately 110 mm^3 were treated i.p. with 5 mgs/kg M53-PEG24-CEN09-106 at q3d×4, 20 mg/kg scillarenin-4-amino-deoxy-L-xylopryanoside (an intermediate in the construction of M53-PEG24-CEN09-106 and known cytotoxin) at q2dx5, and 15 mg/kg paclitaxel at q1d×5. Tumor volumes were measured for each group using calibrated vernier calipers plotted against day of first dose for 100 days to produce the graph shown in FIG. 4.
Paclitaxel at its optimum dosing produced 80% growth inhibition of the tumor when compared to vehicle.

[5] = tested on: H460 xenograft; experiment: H460 xenograft model; type: in vivo, Hsd:Athymic Nude-Foxn1nu mice; details: H460 xenograft
Method: Briefly, to establish a large-cell lung cancer disease model, 1×10^6 H-460 cells in 100 μL RPMI1640+30% Matrigel HC (BD Biosciences, San Jose, Calif.) were implanted into the left flank of Hsd:Athymic Nude-Foxn1^nu mice (Harlan, Indianapolis, Ind.). Therapy was initiated when the tumor size in groups of 5 animals averaged ˜200 mm^3. Treatment using vehicle control, M53-PEG24-CEN09-106 at 0.1 and 1 mg/kg, and 10 mg/kg control M53-PEG24-CEN09-106 (as described above) consisted of multiple i.v. injections using the schedule of one injection every 7 days for 2 injections (q7d×2). Paclitaxel served as a positive control treatment group and was dosed i.v. at 15 mg/kg using the schedule of one injection every 2 days for 5 injections (q2d×5). Using this schedule, tumor volumes were measured for each group using calibrated vernier calipers and plotted against day of tumor implant for 24 days post-implant and 12 days post-initial dose, graphed and shown in FIG. 5.

[6] = biological target: T1, human dysadherin (human, UniProt Q96DB9 22-178); experiment: cell-based or functional assay
T1 chain: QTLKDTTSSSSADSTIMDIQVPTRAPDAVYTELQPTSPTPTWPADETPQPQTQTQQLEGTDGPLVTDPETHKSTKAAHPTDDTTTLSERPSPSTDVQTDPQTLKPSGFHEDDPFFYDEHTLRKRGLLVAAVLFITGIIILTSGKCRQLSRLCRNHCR

[7] = tested on: NSCLC cell line A549; experiment: In vitro activity of chimeric and scFv conjugates against A549; details: A549 cells; scFv conjugates
Method: Cells were incubated with the agent/conjugate for 3 days before cell viability testing. Cell viability testing used the CellTiter-Glo luminescent cell viability assay (Promega, Madison, Wis.).

[8] = biological target: T1, human dysadherin; experiment: cell-based or functional assay

CO[C@H]1C[C@@H]2CC[C@@H](C)[C@@](O)(O2)C(=O)C(=O)N2CCCC[C@H]2C(=O)O[C@H]([C@H](C)C[C@@H]2CC[C@@H](OCCO)[C@H](OC)C2)CC(=O)[C@H](C)/C=C(\C)[C@@H](O)[C@@H](OC)C(=O)[C@H](C)C[C@H](C)/C=C/C=C/C=C/1C [Everolimus]
EC50 ([1]; drug alone, A549 cells, read-out: EC50): 11 nM

Nc1ccn([C@@H]2O[C@H](CO)[C@@H](O)C2(F)F)c(=O)n1 [Gemcitabine, reference compound]
growth inhibition of the tumor compared to vehicle [2]: 68%

CCN(CC)CCCCNc1ncc2cc(-c3cc(OC)cc(OC)c3)c(NC(=O)NC(C)(C)C)nc2n1 [PD 0173074]
EC50 ([1]; A549): 29000 nM

CC(=O)O[C@H]1C(=O)[C@@]2(C)[C@H]([C@H](OC(=O)c3ccccc3)[C@]3(O)C[C@H](OC(=O)[C@H](O)[C@@H](NC(=O)c4ccccc4)c4ccccc4)C(C)=C1C3(C)C)[C@]1(OC(C)=O)CO[C@@H]1C[C@@H]2O [Paclitaxel, reference compound]
growth inhibition of the tumor compared to vehicle [3]: 45% | growth inhibition of the tumor compared to vehicle [4]: 80% | weight loss [4]: 11% | weight loss ([5]; EDC 0.1 mg/kg q7dx2, paclitaxel 15 mg/kg q2dx5): 15% | growth inhibition of the tumor compared to vehicle ([5]; controls: paclitaxel 15 mg/kg i.v. q2dx5, control conjugate 10 mg/kg i.v. q7dx2): 78%

C[C@]12CC[C@H](OC3OC[C@H](N)[C@@H](O)[C@@H]3O)C=C1CCC1C2CC[C@]2(C)[C@@H](c3ccc(=O)oc3)CC[C@]12O (stereo partly drawn) [Scillarenin-4-amino-4-deoxy-L-xylopyranoside]
growth inhibition of the tumor compared to vehicle [4]: 60% | weight loss [4]: 8%

B1: scFv-PEG24-CEN09-106 (scFv)
scFv: ECQLVESGGGLVQPKGTLKLSCAASGFSFNTHAMNWVRQAPGKSLEWVARTMSKSNNYATYYADSVKDRFIISRDDSQSMLYLQMNNLKTEDTAMYYCVRDDPKRGMDYWGQGTSVTVSSGGGGSGGGGSGGGGSGIVMSQSPSSLAVSVGEKVTMSCKPSQSLLYSRNQKIYLAWYQQKPGQSPKLLIYWASTRESGVPDRFTGSGSGTDFTLIISSVRAEDLAVYYCQQYYNYPLTFGAGTKLELK
modifications: PEG24-CEN09-106 (scillarenin linker-drug) on the unpaired cysteine (position 23 of SEQ ID NO: 30)
EC50, in vitro activity against A549 cells [6]: 1.6 nM

B2: scFv-PEG12-CEN09-016: scFv conjugate with PEG12 linker, 1 drug per scFv (conjugate)
scFv: ECQLVESGGGLVQPKGTLKLSCAASGFSFNTHAMNWVRQAPGKSLEWVARTMSKSNNYATYYADSVKDRFIISRDDSQSMLYLQMNNLKTEDTAMYYCVRDDPKRGMDYWGQGTSVTVSSGGGGSGGGGSGGGGSGIVMSQSPSSLAVSVGEKVTMSCKPSQSLLYSRNQKIYLAWYQQKPGQSPKLLIYWASTRESGVPDRFTGSGSGTDFTLIISSVRAEDLAVYYCQQYYNYPLTFGAGTKLELK
EC50 [7]: 9.1 nM

B3: scFv-PEG36-CEN09-016: scFv conjugate with PEG36 linker, 1 drug per scFv (conjugate)
scFv: ECQLVESGGGLVQPKGTLKLSCAASGFSFNTHAMNWVRQAPGKSLEWVARTMSKSNNYATYYADSVKDRFIISRDDSQSMLYLQMNNLKTEDTAMYYCVRDDPKRGMDYWGQGTSVTVSSGGGGSGGGGSGGGGSGIVMSQSPSSLAVSVGEKVTMSCKPSQSLLYSRNQKIYLAWYQQKPGQSPKLLIYWASTRESGVPDRFTGSGSGTDFTLIISSVRAEDLAVYYCQQYYNYPLTFGAGTKLELK
EC50 [7]: 1.1 nM

B4: M53-PEG24-CEN10-110 (antibody, V domains shown)
VH: EVQLVESGGGLVQPKGTLKLSCAASGFSFNTHAMNWVRQAPGKSLEWVARTMSKSNNYATYYADSVKDRFIIRADDSQSMLYLQMNNLKTEDTAMYYCVRDDPKRGMDYWGQGTSVTVSS
VL: GIVMSQSPSSLAVSVGEKVTMSCKPSQSLLYSRNQKIYLAWYQQKPGQSPKLLIYWASTRESGVPDRFTGSGSGTDFTLIISSVRAEDLAVYYCQQYYNYPLTFGAGTKLELKR
modifications: PEG24-CEN10-110 on reduced cysteine thiols; positions not given; PEG24-CEN10-110 (scillarenin linker-drug with lysine in the linker) on reduced cysteine thiols; positions not given
EC50, cytotoxicity (CellTiter-Glo cell viability), A375 cells [8]: 0.5 nM | EC50, cytotoxicity (CellTiter-Glo cell viability), A549 cells [8]: 0.1 nM | EC50, cytotoxicity (CellTiter-Glo cell viability), H460 cells [8]: 0.2 nM

B5: M53-PEG24-CEN09-107 (antibody, V domains shown)
VH: EVQLVESGGGLVQPKGTLKLSCAASGFSFNTHAMNWVRQAPGKSLEWVARTMSKSNNYATYYADSVKDRFIIRADDSQSMLYLQMNNLKTEDTAMYYCVRDDPKRGMDYWGQGTSVTVSS
VL: GIVMSQSPSSLAVSVGEKVTMSCKPSQSLLYSRNQKIYLAWYQQKPGQSPKLLIYWASTRESGVPDRFTGSGSGTDFTLIISSVRAEDLAVYYCQQYYNYPLTFGAGTKLELKR
modifications: PEG24-CEN09-107 on reduced cysteine thiols; positions not given; PEG24-CEN09-107 (scillarenin 4-amino-riboside PEG24 maleimide linker-drug) on reduced cysteine thiols; positions not given
EC50, cytotoxicity (CellTiter-Glo cell viability), A375 cells [8]: 2.6 nM | EC50, cytotoxicity (CellTiter-Glo cell viability), A549 cells [8]: 0.5 nM

B6: cM53-PEG24-CEN09-106 (antibody, human IgG1, kappa, V domains shown)
VH: ECQLVESGGGLVQPKGTLKLSCAASGFSFNTHAMNWVRQAPGKSLEWVARTMSKSNNYATYYADSVKDRFIISRDDSQSMLYLQMNNLKTEDTAMYYCVRDDPKRGMDYWGQGTSVTVSS
VL: GIVMSQSPSSLAVSVGEKVTMSCKPSQSLLYSRNQKIYLAWYQQKPGQSPKLLIYWASTRESGVPDRFTGSGSGTDFTLIISSVRAEDLAVYYCQQYYNYPLTFGAGTKLELKR
modifications: PEG24-CEN09-106 on cysteine thiols; positions not stated (cysteine in place of valine at position 2 of SEQ ID NO: 23)
EC50, in vitro activity against A549 cells [6]: 2 nM

B7: M53-PEG24-CEN-319 (antibody, V domains shown)
VH: EVQLVESGGGLVQPKGTLKLSCAASGFSFNTHAMNWVRQAPGKSLEWVARTMSKSNNYATYYADSVKDRFIIRADDSQSMLYLQMNNLKTEDTAMYYCVRDDPKRGMDYWGQGTSVTVSS
VL: GIVMSQSPSSLAVSVGEKVTMSCKPSQSLLYSRNQKIYLAWYQQKPGQSPKLLIYWASTRESGVPDRFTGSGSGTDFTLIISSVRAEDLAVYYCQQYYNYPLTFGAGTKLELKR
modifications: PEG24-CEN-319 on reduced cysteine thiols; positions not given; PEG24-CEN-319 (digitoxigenin 4-amino-xyloside PEG24 maleimide linker-drug) on reduced cysteine thiols; positions not given
EC50, cytotoxicity (CellTiter-Glo cell viability), A549 cells [8]: 1.6 nM | EC50, cytotoxicity (CellTiter-Glo cell viability), H929 cells [8]: > 200 nM | EC50, cytotoxicity (CellTiter-Glo cell viability), PANC cells [8]: > 200 nM
